Earlier results as cited in PMC12583094, “A novel antioxidant peptide from black soybean [Glycine max (L.) Merr.] with verified MPO interaction and multi-scale antioxidant activity” (Frontiers in Nutrition, 2025).

Molecular target: MPO (Homo sapiens) (UniProt P05164)
Assay: SPR

Sequence of MPO (Homo sapiens) (P05164 165-273, chain 1 of 2): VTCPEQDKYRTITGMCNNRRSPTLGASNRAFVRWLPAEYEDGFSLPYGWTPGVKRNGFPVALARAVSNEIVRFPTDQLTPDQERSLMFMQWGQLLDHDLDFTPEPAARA
Sequence of MPO (Homo sapiens) (P05164 279-745, chain 2 of 2): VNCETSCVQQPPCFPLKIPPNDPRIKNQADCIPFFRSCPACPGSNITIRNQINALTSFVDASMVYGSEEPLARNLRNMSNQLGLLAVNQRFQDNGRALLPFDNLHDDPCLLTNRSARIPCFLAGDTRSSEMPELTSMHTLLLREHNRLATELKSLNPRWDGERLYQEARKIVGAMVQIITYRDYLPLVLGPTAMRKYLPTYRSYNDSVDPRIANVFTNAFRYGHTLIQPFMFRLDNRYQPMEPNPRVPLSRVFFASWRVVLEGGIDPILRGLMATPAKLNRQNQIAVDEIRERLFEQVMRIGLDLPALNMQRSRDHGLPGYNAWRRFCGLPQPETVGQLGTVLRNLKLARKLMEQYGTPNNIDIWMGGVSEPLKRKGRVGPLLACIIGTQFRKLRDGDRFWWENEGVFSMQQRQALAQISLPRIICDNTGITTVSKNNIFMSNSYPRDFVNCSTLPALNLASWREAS

For SPIN (from UniProt A0A0H3K703), the Kd is given as 10 nM.
